Source: PMC4909252, “High-resolution NMR structures of the domains of Saccharomyces cerevisiae Tho1”

Key:
[1] = target: T1, Tho1 N-terminal SAP domain (Saccharomyces cerevisiae, UniProt P40040 1-50); test: NMR (15N HSQC); 200 uM protein; 15N HSQC, 200 uM protein and oligo; typical NMR buffer 20 mM potassium phosphate pH 6.5, 100 mM NaCl, 5 mM beta-mercaptoethanol, 10% D2O, 25 C; conditions: protein: recombinant; tags: His6-lipoyl fusion removed by TEV; 15N-labelled; called dsRNA
T1 chain: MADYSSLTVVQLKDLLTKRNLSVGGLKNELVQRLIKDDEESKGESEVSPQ

[2] = target: T1, Tho1 N-terminal SAP domain; test: NMR (15N HSQC); 200 uM protein, 200 uM DNA; 15N HSQC, 200 uM protein and oligo; typical NMR buffer 20 mM potassium phosphate pH 6.5, 100 mM NaCl, 5 mM beta-mercaptoethanol, 10% D2O, 25 C; conditions: protein: recombinant; tags: His6-lipoyl fusion removed by TEV; 15N-labelled; blunt, self-complementary, 2 copies of one strand

Q: Does GGACAGCUGUCCCUUCGGGGACAGCUGUCC (structured_RNA) [30-mer dsRNA] bind [1]?
A: no binding

B1: random dsDNA 12-mer (dsDNA)
DNA 1: TCCTGATCAGGA
DNA 2: TCCTGATCAGGA
Q: Does B1 bind [2]?
A: binds
